PMC11142921, “Antibody discovery identifies regulatory mechanisms of protein arginine deiminase 4” (Nature Chemical Biology, 2024)

Key:
[1] = target: T1, human protein arginine deiminase 4 (hPAD4), wild type (human, UniProt Q9UM07, biotin on the N-terminal AviTag); assay: cell-based or functional assay
PAD3 = target: T2, PAD3 (Homo sapiens (assumed), UniProt Q9ULW8); assay: BLI; binding of the functional human antibodies to PAD4, PAD2 and PAD3; who was immobilised and the antibody format are not told for this experiment; conditions: both partners purified
T2 construct: PAD3, commercially available; also called protein arginine deiminase 3
T2 sequence (Q9ULW8 whole entry): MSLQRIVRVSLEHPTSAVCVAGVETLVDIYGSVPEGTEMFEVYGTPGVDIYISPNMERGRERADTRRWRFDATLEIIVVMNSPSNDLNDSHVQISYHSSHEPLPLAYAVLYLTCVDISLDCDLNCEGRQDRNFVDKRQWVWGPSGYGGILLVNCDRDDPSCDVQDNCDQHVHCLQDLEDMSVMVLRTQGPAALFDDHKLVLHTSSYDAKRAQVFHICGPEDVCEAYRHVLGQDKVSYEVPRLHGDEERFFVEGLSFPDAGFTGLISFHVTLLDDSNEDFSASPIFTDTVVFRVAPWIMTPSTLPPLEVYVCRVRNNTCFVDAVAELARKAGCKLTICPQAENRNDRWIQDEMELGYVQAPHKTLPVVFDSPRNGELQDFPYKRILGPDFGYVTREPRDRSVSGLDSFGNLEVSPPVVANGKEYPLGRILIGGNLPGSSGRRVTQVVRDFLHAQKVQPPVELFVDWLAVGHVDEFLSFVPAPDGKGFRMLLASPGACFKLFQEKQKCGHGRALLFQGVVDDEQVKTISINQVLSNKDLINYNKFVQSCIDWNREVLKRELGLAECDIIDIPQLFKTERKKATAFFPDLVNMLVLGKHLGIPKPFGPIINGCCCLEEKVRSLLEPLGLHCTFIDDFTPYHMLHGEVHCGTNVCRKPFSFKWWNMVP

[2] = target: T1, human protein arginine deiminase 4 …; assay: BLI; Octet RED384; biotinylated hPAD4 on streptavidin biosensors, antibody (IgG by the legend) as analyte; TBSTB; 2 and 10 mM Ca2+; 1:1 monovalent model; conditions: both partners purified
[3] = target: T1, human protein arginine deiminase 4 …; assay: negative-stain EM; hPAD4 incubated with Fab fragments in equimolar amounts; 2D micrographs; uranyl formate stain; conditions: both partners purified
hPAD4 R8E = target: T3, hPAD4 R8E (human, UniProt Q9UM07, R8E); assay: BLI; Octet RED384; biotinylated hPAD4 (WT or mutant) on streptavidin biosensors, purified binder as analyte; TBSTB; calcium concentration not told for these experiments; 1:1 monovalent model; conditions: both partners purified
T3 construct: Protein arginine deiminase 4, human, point mutant; Mutant of the hPAD4 construct m1; source: cloned and expressed as hPAD4 (E. coli, Ni-NTA)
T3 sequence (Q9UM07 whole entry R8E): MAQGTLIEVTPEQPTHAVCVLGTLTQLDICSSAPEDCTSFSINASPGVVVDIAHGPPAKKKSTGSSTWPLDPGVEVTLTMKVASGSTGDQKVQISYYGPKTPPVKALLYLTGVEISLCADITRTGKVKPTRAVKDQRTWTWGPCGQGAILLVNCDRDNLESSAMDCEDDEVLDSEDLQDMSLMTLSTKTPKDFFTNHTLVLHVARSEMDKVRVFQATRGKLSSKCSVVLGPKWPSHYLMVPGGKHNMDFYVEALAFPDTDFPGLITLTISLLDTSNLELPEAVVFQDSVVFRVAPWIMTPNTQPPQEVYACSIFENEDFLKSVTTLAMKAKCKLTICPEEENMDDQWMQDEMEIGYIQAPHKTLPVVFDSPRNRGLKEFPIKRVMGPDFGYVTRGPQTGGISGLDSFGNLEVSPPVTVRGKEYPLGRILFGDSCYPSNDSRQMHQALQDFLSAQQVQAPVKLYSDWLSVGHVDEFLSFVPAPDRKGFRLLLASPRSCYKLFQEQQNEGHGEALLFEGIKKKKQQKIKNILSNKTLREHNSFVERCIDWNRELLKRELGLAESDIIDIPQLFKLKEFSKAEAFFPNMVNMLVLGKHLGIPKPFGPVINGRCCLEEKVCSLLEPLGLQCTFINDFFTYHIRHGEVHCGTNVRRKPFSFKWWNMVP

[4] = target: T4, hPAD4 R8E–Y435A double mutant (human, UniProt Q9UM07, R8E | Y435A); assay: as above; conditions: both partners purified
T4 construct: Protein arginine deiminase 4, human, double mutant; Mutant of the hPAD4 construct m1; also called R8E/Y435 double mutant; source: cloned and expressed as hPAD4 (E. coli, Ni-NTA)
T4 sequence (Q9UM07 whole entry R8E/Y435A): as the sequence (Q9UM07 whole entry R8E) above, with Y435A counted along it

hPAD4 Y435A = target: T5, hPAD4 Y435A (human, UniProt Q9UM07, Y435A); assay: as above; conditions: both partners purified
T5 construct: Protein arginine deiminase 4, human, point mutant; Mutant of the hPAD4 construct m1; source: cloned and expressed as hPAD4 (E. coli, Ni-NTA)
T5 sequence (Q9UM07 whole entry Y435A): as the sequence (Q9UM07 whole entry R8E) above, with E8R, Y435A counted along it

[5] = target: T1, human protein arginine deiminase 4 …; assay: as above; conditions: both partners purified
[6] = target: T1, human protein arginine deiminase 4 …; assay: BLI; binding of the functional human antibodies to PAD4, PAD2 and PAD3; who was immobilised and the antibody format are not told for this experiment; conditions: both partners purified
PAD2 = target: T6, PAD2 (Homo sapiens (assumed), UniProt Q9Y2J8); assay: as above; conditions: both partners purified
T6 construct: PAD2, commercially available; also called protein arginine deiminase 2
T6 sequence (Q9Y2J8 whole entry): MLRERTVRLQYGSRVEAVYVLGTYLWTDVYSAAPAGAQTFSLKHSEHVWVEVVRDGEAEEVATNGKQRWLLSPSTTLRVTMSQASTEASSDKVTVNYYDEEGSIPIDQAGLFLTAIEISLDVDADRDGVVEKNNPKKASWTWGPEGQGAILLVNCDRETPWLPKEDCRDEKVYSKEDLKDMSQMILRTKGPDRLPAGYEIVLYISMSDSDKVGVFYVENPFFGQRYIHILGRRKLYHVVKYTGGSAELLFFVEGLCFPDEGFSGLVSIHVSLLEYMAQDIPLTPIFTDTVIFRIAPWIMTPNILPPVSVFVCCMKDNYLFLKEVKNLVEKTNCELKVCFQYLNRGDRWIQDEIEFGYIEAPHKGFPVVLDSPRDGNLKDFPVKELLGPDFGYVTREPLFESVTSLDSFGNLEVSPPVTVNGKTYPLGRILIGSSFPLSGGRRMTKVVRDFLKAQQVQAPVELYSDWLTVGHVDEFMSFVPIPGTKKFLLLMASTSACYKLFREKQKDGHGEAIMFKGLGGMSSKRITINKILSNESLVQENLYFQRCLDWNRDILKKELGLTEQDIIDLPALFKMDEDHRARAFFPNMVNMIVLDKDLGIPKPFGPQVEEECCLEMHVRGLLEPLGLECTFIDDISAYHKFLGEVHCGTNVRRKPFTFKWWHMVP

[7] = target: T7, mouse protein arginine deiminase 4 (mPAD4) (Mus musculus, UniProt Q9Z183, biotin on the N-terminal AviTag); assay: BLI; Octet RED384; biotinylated mPAD4 on streptavidin biosensors, antibody as analyte; TBSTB; 10 mM Ca2+; conditions: both partners purified
T7 construct: Protein arginine deiminase 4, mouse; PreScission or TEV site between the tags and PAD4; also called murine PAD4; source: BirA-expressing E. coli (C43 (DE3) Pro+ or BL21 Gold (DE3)), purified (Ni-NTA, 0.5 mM TCEP); not shown: AviTag, N-terminal, kept
T7 sequence (Q9Z183 whole entry): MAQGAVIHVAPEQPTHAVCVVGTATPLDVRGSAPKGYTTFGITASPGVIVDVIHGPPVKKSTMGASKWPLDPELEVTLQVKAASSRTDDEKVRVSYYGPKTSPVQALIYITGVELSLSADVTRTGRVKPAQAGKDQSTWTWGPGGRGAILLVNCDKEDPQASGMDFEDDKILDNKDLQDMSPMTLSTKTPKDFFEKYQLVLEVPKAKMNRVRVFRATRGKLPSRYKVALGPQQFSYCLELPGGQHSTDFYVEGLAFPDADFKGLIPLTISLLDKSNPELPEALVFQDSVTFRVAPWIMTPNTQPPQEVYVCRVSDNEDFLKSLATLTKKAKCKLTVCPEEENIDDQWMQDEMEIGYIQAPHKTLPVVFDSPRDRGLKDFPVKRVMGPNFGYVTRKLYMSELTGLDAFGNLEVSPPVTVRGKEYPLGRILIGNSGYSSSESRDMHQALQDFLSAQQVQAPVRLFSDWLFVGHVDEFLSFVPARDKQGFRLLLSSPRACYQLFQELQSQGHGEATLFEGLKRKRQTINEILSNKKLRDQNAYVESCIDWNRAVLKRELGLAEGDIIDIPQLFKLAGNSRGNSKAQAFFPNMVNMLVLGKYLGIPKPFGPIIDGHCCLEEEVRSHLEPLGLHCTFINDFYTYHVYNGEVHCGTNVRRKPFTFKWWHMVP

[8] = target: T7, mouse protein arginine deiminase 4 …; assay: BLI; Octet RED384; biotinylated mPAD4 on streptavidin biosensors, antibody as analyte; TBSTB; calcium-free form of mPAD4; conditions: both partners purified

T1 sequence (Q9UM07 whole entry): as the sequence (Q9UM07 whole entry R8E) above, with E8R counted along it

B1: E3 (affinity-matured variant of hI365) (antibody, V domains shown)
VH: EVQLVESGGGLVQPGGSLRLSCAASGFNFFYSIHWVRQAPGKGLEWVASISPYTDYTSYADSVKGRFTISADTSKNTAYLQMNSLRAEDTAVYYCARKHPGSYPFWGFALDYWGQGTLVTVSS
VL: DIQMTQSPSSLSASVGDRVTITCRASQSVSSAVAWYQQKPGKAPKLLIYSASSLYSGVPSRFSGSRSGTDFTLTISSLQPEDFATYYCQQSSSSLVTFGQGTKVEIK
**Q.** Which “IC50 of PAD4 inhibition” value [1] does the source give for B1 here?
**A.** 0.094 µM

**Q.** And the “IC50 of inhibition of PAD4 citrullination of histone H3 (western blot)” value [1]?
**A.** 0.095 µM

B2: E6 (affinity-matured variant of hI365) (antibody, V domains shown)
VH: EVQLVESGGGLVQPGGSLRLSCAASGFNFYYSIHWVRQAPGKGLEWVASISPYTDRTSYADSVKGRFTISADTSKNTAYLQMNSLRAEDTAVYYCARKHPGRYPNWGFALDYWGQGTLVTVSS
VL: DIQMTQSPSSLSASVGDRVTITCRASQSVSSAVAWYQQKPGKAPKLLIYSASSLYSGVPSRFSGSRSGTDFTLTISSLQPEDFATYYCQQSMSSQLVTFGQGTKVEIK
notes: variant of the heavy chain of hI365 from soft-randomisation libraries; variant of the light chain of hI365; CDR L3 of ten amino acids; also called clone E6
**Q.** What does the source list for B2?
**A.** binding result (PAD3): no binding; IC50 of inhibition of PAD4 citrullination of histone H3 (western blot) [1]: 0.013 µM

B3: hI364 IgG (antibody, V domains shown)
VH: EVQLVESGGGLVQPGGSLRLSCAASGFNVYSSSIHWVRQAPGKGLEWVASISSSSGSTSYADSVKGRFTISADTSKNTAYLQMNSLRAEDTAVYYCARYSDHYYYWSYWSSWYSGLDYWGQGTLVTVSS
VL: DIQMTQSPSSLSASVGDRVTITCRASQSVSSAVAWYQQKPGKAPKLLIYSASSLYSGVPSRFSGSRSGTDFTLTISSLQPEDFATYYCQQSSSSLITFGQGTKVEIK
notes: heavy chain of hI364 fused to hIgG1-Fc (pFUSE-hIgG1-Fc); light chain of hI364; The activity screen and the selection were done with the Fab form; source: Expi293, transiently cotransfected, purified (protein A or Ni-NTA); copies: 2 + 2
**Q.** How did the Kd [2] turn out when B3 was run?
**A.** 0.00064 µM

B4: hI281 Fab (Fab, V domains shown)
VH: EVQLVESGGGLVQPGGSLRLSCAASGFNVSYSSIHWVRQAPGKGLEWVASIYPYYGSTSYADSVKGRFTISADTSKNTAYLQMNSLRAEDTAVYYCARQMYYWMFSKLALDYWGQGTLVTVSS
VL: DIQMTQSPSSLSASVGDRVTITCRASQSVSSAVAWYQQKPGKAPKLLIYSASSLYSGVPSRFSGSRSGTDFTLTISSLQPEDFATYYCQQSYYRTLFTFGQGTKVEIK
notes: Fab heavy chain of hI281; light chain of hI281; From synthetic Fab-phage library E (4D5-type scaffold); also called Fab-hI281; source: E. coli C43 (DE3) Pro+, purified (Ni-NTA)
**Q.** Does B4 bind [3]?
**A.** binds

B5: hA288 Fab (Fab, V domains shown)
VH: EVQLVESGGGLVQPGGSLRLSCAASGFNVYYSSIHWVRQAPGKGLEWVASIYSYSGSTSYADSVKGRFTISADTSKNTAYLQMNSLRAEDTAVYYCARYWPKMAGYWYIYRFALDYWGQGTLVTVSS
VL: DIQMTQSPSSLSASVGDRVTITCRASQSVSSAVAWYQQKPGKAPKLLIYSASSLYSGVPSRFSGSRSGTDFTLTISSLQPEDFATYYCQQYRQYNLITFGQGTKVEIK
notes: Fab heavy chain of hA288; light chain of hA288; source: E. coli C43 (DE3) Pro+, purified (Ni-NTA)
**Q.** Does B5 bind [3]?
**A.** binds

B6: hA362 Fab (Fab, V domains shown)
VH: EVQLVESGGGLVQPGGSLRLSCAASGFNVSYYSIHWVRQAPGKGLEWVASISPYYGSTYYADSVKGRFTISADTSKNTAYLQMNSLRAEDTAVYYCARHPYRKGYSGLDYWGQGTLVTVSS
VL: DIQMTQSPSSLSASVGDRVTITCRASQSVSSAVAWYQQKPGKAPKLLIYSASSLYSGVPSRFSGSRSGTDFTLTISSLQPEDFATYYCQQSSYLPLFTFGQGTKVEIK
notes: Fab heavy chain of hA362; light chain of hA362; also called Fab hA362; source: E. coli C43 (DE3) Pro+, purified (Ni-NTA)
**Q.** Does B6 bind [3]?
**A.** binds

**Q.** What about the “fold decrease of binding affinity against WT hPAD4” value (shortened to “fold decrease of binding affinity”) (hPAD4 R8E) of the same binder?
**A.** ~3 fold

**Q.** And the “fold decrease of binding affinity” value [4]?
**A.** ~160 fold

**Q.** What about the “fold decrease of binding affinity” value (hPAD4 Y435A) of the same binder?
**A.** ~10 fold

B7: hI365 IgG (antibody, V domains shown)
VH: EVQLVESGGGLVQPGGSLRLSCAASGFNFYYSIHWVRQAPGKGLEWVASISPYSGYTSYADSVKGRFTISADTSKNTAYLQMNSLRAEDTAVYYCARKHPGSYPFWGWALDYWGQGTLVTVSS
VL: DIQMTQSPSSLSASVGDRVTITCRASQSVSSAVAWYQQKPGKAPKLLIYSASSLYSGVPSRFSGSRSGTDFTLTISSLQPEDFATYYCQQSSSSLVTFGQGTKVEIK
notes: heavy chain of hI365 fused to hIgG1-Fc (pFUSE-hIgG1-Fc); as the light chain of m16; also called WT hI365; source: Expi293, transiently cotransfected, purified (protein A or Ni-NTA); copies: 2 + 2
**Q.** For B7, which Kd [2] is on record?
**A.** 0.0012 µM

B8: hI281 IgG (antibody, V domains shown)
VH: EVQLVESGGGLVQPGGSLRLSCAASGFNVSYSSIHWVRQAPGKGLEWVASIYPYYGSTSYADSVKGRFTISADTSKNTAYLQMNSLRAEDTAVYYCARQMYYWMFSKLALDYWGQGTLVTVSS
VL: DIQMTQSPSSLSASVGDRVTITCRASQSVSSAVAWYQQKPGKAPKLLIYSASSLYSGVPSRFSGSRSGTDFTLTISSLQPEDFATYYCQQSYYRTLFTFGQGTKVEIK
notes: heavy chain of hI281 fused to hIgG1-Fc (pFUSE-hIgG1-Fc); as the light chain of m10; IgG1; source: Expi293, transiently cotransfected, purified (protein A or Ni-NTA); copies: 2 + 2
**Q.** Does B8 bind [2]?
**A.** binds

B9: hI365 G58D (antibody, V domains shown)
VH: EVQLVESGGGLVQPGGSLRLSCAASGFNFYYSIHWVRQAPGKGLEWVASISPYSDYTSYADSVKGRFTISADTSKNTAYLQMNSLRAEDTAVYYCARKHPGSYPFWGWALDYWGQGTLVTVSS
VL: DIQMTQSPSSLSASVGDRVTITCRASQSVSSAVAWYQQKPGKAPKLLIYSASSLYSGVPSRFSGSRSGTDFTLTISSLQPEDFATYYCQQSSSSLVTFGQGTKVEIK
notes: as the heavy chain of hI365 with the stated change; as the light chain of hI365; also called mutant G58D
**Q.** Does B9 bind [5]?
**A.** binds

B10: hA362 IgG (antibody, V domains shown)
VH: EVQLVESGGGLVQPGGSLRLSCAASGFNVSYYSIHWVRQAPGKGLEWVASISPYYGSTYYADSVKGRFTISADTSKNTAYLQMNSLRAEDTAVYYCARHPYRKGYSGLDYWGQGTLVTVSS
VL: DIQMTQSPSSLSASVGDRVTITCRASQSVSSAVAWYQQKPGKAPKLLIYSASSLYSGVPSRFSGSRSGTDFTLTISSLQPEDFATYYCQQSSYLPLFTFGQGTKVEIK
notes: heavy chain of hA362 fused to hIgG1-Fc (pFUSE-hIgG1-Fc); as the light chain of m13; IgG1; source: Expi293, transiently cotransfected, purified (protein A or Ni-NTA); copies: 2 + 2
**Q.** Does B10 bind [6]?
**A.** binds

**Q.** Does B10 bind (PAD2)?
**A.** no binding

B11: mA342 IgG (antibody, V domains shown)
VH: EVQLVESGGGLVQPGGSLRLSCAASGFNVYSSSIHWVRQAPGKGLEWVASISSSSGYTYYADSVKGRFTISADTSKNTAYLQMNSLRAEDTAVYYCARYSYSIYYYSGYPYYHMGLDYWGQGTLVTVSS
VL: DIQMTQSPSSLSASVGDRVTITCRASQSVSSAVAWYQQKPGKAPKLLIYSASSLYSGVPSRFSGSRSGTDFTLTISSLQPEDFATYYCQQWSYSRLITFGQGTKVEIK
notes: heavy chain of mA342 fused to hIgG1-Fc (pFUSE-hIgG1-Fc); light chain of mA342; also called WT mA342; source: Expi293, transiently cotransfected, purified (protein A or Ni-NTA); copies: 2 + 2
**Q.** With B11 as the binder, how does the Kd [7] read?
**A.** < 0.001 µM

**Q.** And the Kd [8]?
**A.** 200 µM

B12: mA342-c3 (antibody, V domains shown)
VH: EVQLVESGGGLVQPGGSLRLSCAASGFNVYSSSIHWVRQAPGKGLEWVASISSSSGYTYYADSVKGRFTISADTSKNTAYLQMNSLRAEDTAVYYCARYSASIYYYSGYPAYHAGLDYWGQGTLVTVSS
VL: DIQMTQSPSSLSASVGDRVTITCRASQSVSSAVAWYQQKPGKAPKLLIYSASSLYSGVPSRFSGSRSGTDFTLTISSLQPEDFATYYCQQWSYSRLATFGQGTKVEIK
notes: as the heavy chain of m20 with the stated changes; as the light chain of m20 with the stated change; The text names it mA342-c3, the legends mA342-c4
**Q.** Does B12 bind [7]?
**A.** binds
